In data set [1] the target is T1, Cbp1;Cren7 (Saccharolobus (Sulfolobus) solfataricus …, UniProt Q97ZW9;Q97ZE3 1-150;1-60, |).
T1 sequence 1: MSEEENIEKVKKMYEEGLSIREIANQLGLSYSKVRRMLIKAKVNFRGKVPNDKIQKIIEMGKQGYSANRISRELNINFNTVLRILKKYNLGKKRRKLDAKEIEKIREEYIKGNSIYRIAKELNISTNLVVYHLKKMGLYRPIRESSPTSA
T1 sequence 2: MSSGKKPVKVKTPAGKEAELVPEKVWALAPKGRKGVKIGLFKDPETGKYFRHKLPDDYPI
As to the kind of experiment: EMSA; 12.5 nM Cbp1, 3.125-25 nM Cren7; weaker Cren7 affinity than CRISPR A; EMSA: 800 pM DNA, 10 mM MOPS pH 6.5, 100 mM KCl, 10 mM MgCl2, 2 µg BSA, 10% glycerol, 5 mM DTT, 75 °C 5 min; long templates: 10 mM MOPS pH 6.5, 10 mM MgCl2, 105 mM KCl, 10% glycerol, 10 mM DTT, 5 µg/ml heparin, 2 mM spermidine, 65 °C. To be noted: protein: recombinant;recombinant; tags: ;; copies: 1;2; label: 5'-32P; blunt. A general note: A gel shift assay detects complexes by their altered migration in electrophoresis.

Data set [2] concerns the target T1, Cbp1;Cren7. In words: EMSA; 12.5 nM Cbp1, 3.125-25 nM Cren7; EMSA: 800 pM DNA, 10 mM MOPS pH 6.5, 100 mM KCl, 10 mM MgCl2, 2 µg BSA, 10% glycerol, 5 mM DTT, 75 °C 5 min; long templates: 10 mM MOPS pH 6.5, 10 mM MgCl2, 105 mM KCl, 10% glycerol, 10 mM DTT, 5 µg/ml heparin, 2 mM spermidine, 65 °C. The conditions noted are these: protein: recombinant;recombinant; tags: ;; copies: 1;2; label: 5'-32P; blunt.

For data set [3], the target named is T1, Cbp1;Cren7. In words: EMSA; 12.5 nM Cbp1, 3.125-25 nM Cren7; second Cren7 at higher concentration; EMSA: 800 pM DNA, 10 mM MOPS pH 6.5, 100 mM KCl, 10 mM MgCl2, 2 µg BSA, 10% glycerol, 5 mM DTT, 75 °C 5 min; long templates: 10 mM MOPS pH 6.5, 10 mM MgCl2, 105 mM KCl, 10% glycerol, 10 mM DTT, 5 µg/ml heparin, 2 mM spermidine, 65 °C. To be noted: protein: recombinant;recombinant; tags: ;; copies: 1;2; label: 5'-32P; blunt.

For data set [4], the target named is T1, Cbp1;Cren7. In words: EMSA; 12.5 nM Cbp1, 12.5-25 nM Cren7; two Cren7 recruited; EMSA: 800 pM DNA, 10 mM MOPS pH 6.5, 100 mM KCl, 10 mM MgCl2, 2 µg BSA, 10% glycerol, 5 mM DTT, 75 °C 5 min; long templates: 10 mM MOPS pH 6.5, 10 mM MgCl2, 105 mM KCl, 10% glycerol, 10 mM DTT, 5 µg/ml heparin, 2 mM spermidine, 65 °C. To be noted: protein: recombinant;recombinant; tags: ;; copies: 1;2; label: 5'-32P; blunt.

In data set [5] the target is T2, Cbp1 (Saccharolobus (Sulfolobus) solfataricus …, UniProt Q97ZW9 1-150).
T2 sequence: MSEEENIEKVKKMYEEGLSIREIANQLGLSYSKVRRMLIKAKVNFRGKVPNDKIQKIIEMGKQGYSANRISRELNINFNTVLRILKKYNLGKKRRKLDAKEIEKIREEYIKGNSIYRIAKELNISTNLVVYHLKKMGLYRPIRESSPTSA
In words: EMSA; 12.5 nM Cbp1; stronger than CRISPR A; EMSA: 800 pM DNA, 10 mM MOPS pH 6.5, 100 mM KCl, 10 mM MgCl2, 2 µg BSA, 10% glycerol, 5 mM DTT, 75 °C 5 min; long templates: 10 mM MOPS pH 6.5, 10 mM MgCl2, 105 mM KCl, 10% glycerol, 10 mM DTT, 5 µg/ml heparin, 2 mM spermidine, 65 °C. To be noted: protein: recombinant; label: 5'-32P; blunt.

For data set [6], the target named is T2, Cbp1. In words: EMSA; WT reference; EMSA: 800 pM DNA, 10 mM MOPS pH 6.5, 100 mM KCl, 10 mM MgCl2, 2 µg BSA, 10% glycerol, 5 mM DTT, 75 °C 5 min; long templates: 10 mM MOPS pH 6.5, 10 mM MgCl2, 105 mM KCl, 10% glycerol, 10 mM DTT, 5 µg/ml heparin, 2 mM spermidine, 65 °C. To be noted: protein: recombinant; label: 5'-32P; blunt.
Data set [7] has as its target T3, Cbp1 ΔHTH3 (S. solfataricus P2, UniProt Q97ZW9 1-87+136-150, internal_change).
T3 sequence: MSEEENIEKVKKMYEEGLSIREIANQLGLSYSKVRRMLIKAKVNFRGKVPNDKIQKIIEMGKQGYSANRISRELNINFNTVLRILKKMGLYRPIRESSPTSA
As to the kind of experiment: EMSA; 80 nM; no apparent effect of mutation; EMSA: 800 pM DNA, 10 mM MOPS pH 6.5, 100 mM KCl, 10 mM MgCl2, 2 µg BSA, 10% glycerol, 5 mM DTT, 75 °C 5 min; long templates: 10 mM MOPS pH 6.5, 10 mM MgCl2, 105 mM KCl, 10% glycerol, 10 mM DTT, 5 µg/ml heparin, 2 mM spermidine, 65 °C. The conditions noted are these: protein: recombinant; label: 5'-32P; blunt.

In data set [8] the target is T4, Cbp1 ΔHTH1 (S. solfataricus P2, UniProt Q97ZW9 1-1+51-150, internal_change).
T4 sequence: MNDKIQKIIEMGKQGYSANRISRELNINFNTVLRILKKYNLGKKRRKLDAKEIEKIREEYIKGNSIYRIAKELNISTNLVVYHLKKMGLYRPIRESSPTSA
As to the kind of experiment: EMSA; 160 nM; unaffected by mutation vs ΔHTH1 on WT repeat; EMSA: 800 pM DNA, 10 mM MOPS pH 6.5, 100 mM KCl, 10 mM MgCl2, 2 µg BSA, 10% glycerol, 5 mM DTT, 75 °C 5 min; long templates: 10 mM MOPS pH 6.5, 10 mM MgCl2, 105 mM KCl, 10% glycerol, 10 mM DTT, 5 µg/ml heparin, 2 mM spermidine, 65 °C. To be noted: protein: recombinant; label: 5'-32P; blunt.

Data set [9] concerns the target T2, Cbp1. In words: EMSA; not reduced vs WT repeat; EMSA: 800 pM DNA, 10 mM MOPS pH 6.5, 100 mM KCl, 10 mM MgCl2, 2 µg BSA, 10% glycerol, 5 mM DTT, 75 °C 5 min; long templates: 10 mM MOPS pH 6.5, 10 mM MgCl2, 105 mM KCl, 10% glycerol, 10 mM DTT, 5 µg/ml heparin, 2 mM spermidine, 65 °C. The conditions noted are these: protein: recombinant; label: 5'-32P; blunt.

Results on eleven molecules are retold here after paper PMC10883916, “Cbp1 and Cren7 form chromatin-like structures that ensure efficient transcription of long CRISPR arrays”.

B1: CRISPR D repeat, 20 bp flanks (dsDNA)
DNA 1: AACTAACAAATATACGCCTTGATAATCTCTTATAGAATTGAAAGTCAATTTGTGAAACTTGTCC
DNA 2: GGACAAGTTTCACAAATTGACTTTCAATTCTATAAGAGATTATCAAGGCGTATATTTGTTAGTT
Regarding B1, the binding result in data set [1] was “binds”.

B2: ISC1229 non-canonical Cbp1 binding site (dsDNA)
DNA 1: AACTTCAAGCATAGTGTCAACTAAGATTGCCACGTGAATTGAAAGGATTCACGTGGCGATTTTGG
DNA 2: CCAAAATCGCCACGTGAATCCTTTCAATTCACGTGGCAATCTTAGTTGACACTATGCTTGAAGTT
Consider B2, for which the binding result in [2] is listed as “binds”.

B3: CRISPR A repeat, 20 bp flanks (Fig. 1e) (dsDNA)
DNA 1: CATCTTCTCTCATCACCTTCGATTAATCCCAAAAGGAATTGAAAGAATGTATAAAGGTAACCAGG
DNA 2: CCTGGTTACCTTTATACATTCTTTCAATTCCTTTTGGGATTAATCGAAGGTGATGAGAGAAGATG
With B3, the binding result in data set [3] is “binds”.

B4: CRISPR A repeat 1, 20 bp downstream (dsDNA)
DNA 1: GGAAGTATAAAAACACAACAGATTAATCCCAAAAGGAATTGAAAGGAACTAGCTTATAGTTTAGA
DNA 2: TCTAAACTATAAGCTAGTTCCTTTCAATTCCTTTTGGGATTAATCTGTTGTGTTTTTATACTTCC
On to B4, for which the binding result in data set [4] is on record as “binds”.

B5: CRISPR A repeat 1, 2 bp downstream (dsDNA)
DNA 1: GGAAGTATAAAAACACAACAGATTAATCCCAAAAGGAATTGAAAGGA
DNA 2: TCCTTTCAATTCCTTTTGGGATTAATCTGTTGTGTTTTTATACTTCC
As for B5, the binding result in data set [4] is recorded as “binds”.

B6: CRISPR F repeat, 20 bp flanks (dsDNA)
DNA 1: AAAATTATTGACAAAAATAGGCTAATCTACTATAGAATTGAAAGCTACACCGATTCCGATACCC
DNA 2: GGGTATCGGAATCGGTGTAGCTTTCAATTCTATAGTAGATTAGCCTATTTTTGTCAATAATTTT
As for B6, the binding result in [5] and in [1] was “binds” in each case.

B7: CRISPR A repeat 1, 5 bp flanks (WT) (dsDNA)
DNA 1: CAACAGATTAATCCCAAAAGGAATTGAAAGGAACT
DNA 2: AGTTCCTTTCAATTCCTTTTGGGATTAATCTGTTG
On to B7, for which the binding result in [6] is on record as “binds”.

B8: CRISPR A repeat 1 A22C/A23C (dsDNA)
DNA 1: CAACAGATTAATCCCAAAAGGAATTGCCAGGAACT
DNA 2: AGTTCCTGGCAATTCCTTTTGGGATTAATCTGTTG
As to B8, the binding result in data set [7] is listed as “binds”.

B9: CRISPR A repeat 1 A6C/T7G (dsDNA)
DNA 1: CAACAGATTACGCCCAAAAGGAATTGAAAGGAACT
DNA 2: AGTTCCTTTCAATTCCTTTTGGGCGTAATCTGTTG
Regarding B9, in data set [8], the binding result is given as “binds”.

B10: CRISPR A repeat 1 T19G/T20G (dsDNA)
DNA 1: CAACAGATTAATCCCAAAAGGAAGGGAAAGGAACT
DNA 2: AGTTCCTTTCCCTTCCTTTTGGGATTAATCTGTTG
Turning to B10, the binding result in data set [7] was “binds”.

B11: CRISPR A repeat 1 A13C/A14C (A13C/T14G in text) (dsDNA)
DNA 1: CAACAGATTAATCCCAACCGGAATTGAAAGGAACT
DNA 2: AGTTCCTTTCAATTCCGGTTGGGATTAATCTGTTG
B11: the binding result in [9] is on record as “binds”.
